From patent US20120328619A1 (published 2012)

B1: CD123-specific scFv clone 43 (scFv)
scFv: MADYKDIVMTQSHKFMSTSVGDRVNITCKASQNVDSAVAWYQQKPGQSPKALIYSASYRYSGVPDRFTGRGSGTDFTLTISSVQAEDLAVYYCQQYYSTPWTFGGGTKLEIKRGGGGSGGGGSGGGGSGGGGSEVKLVESGGGLVQPGGSLSLSCAASGFTFTDYYMSWVRQPPGKALEWLALIRSKADGYTTEYSASVKGRFTLSRDDSQSILYLQMNALRPEDSATYYCARDAAYYSYYSPEGAMDYWGQGTSVTVSS
notes: Murine scFv from a phage display library, expressed in E. coli from pAK400, carries a hexahistidine tag
B2: single chain triplebody sctb [123×ds16×33] (other)
chain: MADYKDIVMTQSHKFMSTSVGDRVNITCKASQNVDSAVAWYQQKPGQSPKALIYSASYRYSGVPDRFTGRGSGTDFTLTISSVQAEDLAVYYCQQYYSTPWTFGGGTKLEIKRGGGGSGGGGSGGGGSGGGGSEVKLVESGGGLVQPGGSLSLSCAASGFTFTDYYMSWVRQPPGKALEWLALIRSKADGYTTEYSASVKGRFTLSRDDSQSILYLQMNALRPEDSATYYCARDAAYYSYYSPEGAMDYWGQGTSVTVSSASGAGGGGSGGGGSGGGGSGGGGSAAADYKDIVLTQSPASLAVSLGQRATISCKASQSVDFDGDSFMNWYQQKPGQPPKLLIYTTSNLESGIPARFSASGSGTDFTLNIHPVEEEDTATYYCQQSNEDPYTFGCGTKLELKRGGGGSGGGGSGGGGSGGGGSQVTLKESGPGILQPSQTLSLTCSFSGFSLRTSGMGVGWIRQPSGKCLEWLAHIWWDDDKRYNPALKSRLTISKDTSSNQVFLKIASVDTADTATYYCAQINPAWFAYWGQGTLVTVSRGGGGSGGGGSGGGGSGGGGSMADYKDIVMTQSHKFLLVSVGDRVSITCKASQDVSTAVAWYQQKPGQSPKLLIYSASYRYTGVPDRFIGSGSGTDFTLTISSVQAEDLADYFCQQHYSTPLTFGAGTKLEIKRGGGGSGGGGSGGGGSSGGGSEVQLKESGPGLVAPSQSLSITCTVSGFPLTSYGVSWVRQPPGKGLEWLGVIWGDGSTNYHSALISRLSISKDNSKSQVFLKLNNLQTDDTATYYCARDTYYPYYAMDYWGQGTSVTVSS
notes: also called CD123×dsCD16×CD33

Experiments:
[1] = target: T1, human CD123 (alpha subunit of the interleukin-3 receptor) (human, UniProt P26951 19-378); assay: calibrated flow cytometry
T1 construct: whole, on cells; also called IL-3Rα
T1 sequence (P26951 19-378): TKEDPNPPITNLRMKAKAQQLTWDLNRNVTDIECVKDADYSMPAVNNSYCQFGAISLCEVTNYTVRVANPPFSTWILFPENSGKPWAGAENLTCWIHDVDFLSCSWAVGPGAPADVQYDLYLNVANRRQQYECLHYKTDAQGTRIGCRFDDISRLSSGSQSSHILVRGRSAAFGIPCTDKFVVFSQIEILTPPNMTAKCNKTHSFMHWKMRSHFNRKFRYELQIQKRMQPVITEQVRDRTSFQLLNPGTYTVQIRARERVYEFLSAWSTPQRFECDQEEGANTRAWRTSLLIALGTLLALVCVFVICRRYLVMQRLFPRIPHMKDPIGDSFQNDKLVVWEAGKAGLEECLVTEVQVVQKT

CD33 = target: T2, CD33 (human, UniProt P20138 18-364); assay: calibrated flow cytometry on U937 cells
T2 construct: whole, on cells; also called CD33 on U937 cells
T2 sequence (P20138 18-364): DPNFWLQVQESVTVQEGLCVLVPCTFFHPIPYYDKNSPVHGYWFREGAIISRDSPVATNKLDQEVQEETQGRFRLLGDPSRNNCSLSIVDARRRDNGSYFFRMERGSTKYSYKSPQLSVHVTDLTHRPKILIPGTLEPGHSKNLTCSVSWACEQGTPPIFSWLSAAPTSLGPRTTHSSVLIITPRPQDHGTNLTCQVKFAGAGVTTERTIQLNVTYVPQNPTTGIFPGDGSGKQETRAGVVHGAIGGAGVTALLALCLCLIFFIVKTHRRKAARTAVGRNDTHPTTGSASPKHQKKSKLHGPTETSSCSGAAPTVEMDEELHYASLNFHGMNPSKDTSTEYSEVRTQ
Protocol: (§1) Immunofluorescence analysis was performed on a FACSCalibur instrument using CellQuest software (Becton Dickinson, Heidelberg, Germany) as described (Schwemmlein et al, 2006). Briefly, 1×10⁴ events were collected for each sample, and whole cells were analyzed using appropriate scatter gates to exclude cellular debris and aggregates. […] KD values were determined by calibrated flow cytometry, as described (Benedict at al, 1997). The highest mean fluorescence value was set to 100%, and all data points were normalized to this value. The experiments were repeated 6 times. The KD values were calculated using a nonlinear regression curve fit.

human CD16 (FcγRIII) = target: T3, human CD16 (FcγRIII) (human, UniProt P08637 17-254); assay: calibrated flow cytometry on CD16-transfected CHO cells
T3 construct: whole, on cells
T3 sequence (P08637 17-254): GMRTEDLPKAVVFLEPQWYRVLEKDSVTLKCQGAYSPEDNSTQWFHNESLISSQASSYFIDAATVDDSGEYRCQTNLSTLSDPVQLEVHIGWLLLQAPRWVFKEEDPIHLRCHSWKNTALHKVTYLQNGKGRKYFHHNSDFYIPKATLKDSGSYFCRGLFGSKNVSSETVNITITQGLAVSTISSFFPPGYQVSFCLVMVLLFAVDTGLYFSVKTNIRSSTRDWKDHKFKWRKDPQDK
Protocol: as §1

[2] = target: T1, human CD123 (alpha subunit of the …); assay: calibrated flow cytometry on CD123-transfected 293 cells
Protocol: as §1

[3] = target: T4, CD123 and CD33 on double positive MOLM-13 cells (human, UniProt P26951 19-378; P20138 18-364); assay: calibrated flow cytometry on CD123 and CD33 double positive MOLM-13 cells (avidity)
T4 construct: whole, on cells; Two separate surface antigens on the same cell, not a complex; also called CD33/CD123
T4 sequence (P26951 19-378, chain 1 of 2): as the sequence (P26951 19-378) above
T4 sequence (P20138 18-364, chain 2 of 2): as the sequence (P20138 18-364) above
Protocol: as §1

Binder	Kd [1]	Kd (CD33)	Kd (human CD16 (FcγRIII))	Kd [2]	Kd [3]
B1	4.5 nM				
B2		17.8 nM	21.7 nM	18.8 nM	13.5 nM
